According to the supplement of paper PMC10567573:

B1: EIF5 (parent)
chain: KQTIGNSCKACGYRGMLDTHHKLC

Variants of: B1
Assay: protein stability index of a GFP-peptide fusion (GPS, HEK-293T) (PSI 1-6); higher = more stable
Conditions: c terminus: a fixed tail appended
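Further: lentivirally expressed fusions sorted by FACS into six bins by GFP to DsRed ratio, PSI derived from sequencing read proportions per bin multiplied by bin number.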

In order of falling protein stability index:
1. KQTIGNSCKACGYRGMLDTHHKHC [L23H]  4.67
2. KQTIGNSCKACGYRGPLDTHHKLC [M16P]  4.45
3. KQTIGNSCKACGYRGMCDTHHKLC [L17C]  4.42
4. KQTIGNSCKACGYRGKLDTHHKLC [M16K]  4.35
5. KQTIGNSCKACGYRGMSDTHHKLC [L17S]  4.24
6. KQTIGNSCKACGYRGMLDTHHKEC [L23E]  4.2
7. KQTIGNSCKACGYRGMLDTHHKSC [L23S]  4.18
8. KQTIGNSCKACGYRGMLDTHHKTC [L23T]  4.03
9. KQDIGNSCKACGYRGMLDTHHKLC [T3D]  4.01
10. KQTIGNSCKACGYRGMEDTHHKLC [L17E]  3.98
11. KQTIGQSCKACGYRGMLDTHHKLC [N6Q]  3.95
12. KQTIGNSCKACGYRGMLDTHHKGC [L23G]  3.93
13. KQTIGYSCKACGYRGMLDTHHKLC [N6Y]  3.92
14. KQTIGNSCKACGYRGMTDTHHKLC [L17T]  3.91
15. KQTIGNSCKACGYRGMLDTHHKWC [L23W]  3.91
16. DQTIGNSCKACGYRGMLDTHHKLC [K1D]  3.88
17. KQTIGNSCKACGYRGMQDTHHKLC [L17Q]  3.85
18. KQTIGNSCKACGYRGMLDTHHKNC [L23N]  3.83
19. KQTIGNSCKACGYRGMLDTHHKQC [L23Q]  3.82
20. KQTIGNSCKACGYRGSLDTHHKLC [M16S]  3.8
21. KQTIGNSCKACGYRGMLDTHHPLC [K22P]  3.79
22. KQTIGNSCKACGYRGMLDTHDKLC [H21D]  3.75
23. KQTIGNSCKACGYRGMADTHHKLC [L17A]  3.66
24. KQTIGNSCKACGYRGMNDTHHKLC [L17N]  3.65
25. KQTIGNSCKACGYRGMLDTHHKFC [L23F]  3.64
26. KQTIGDSCKACGYRGMLDTHHKLC [N6D]  3.63
27. KQTMGNSCKACGYRGMLDTHHKLC [I4M]  3.63
28. KQTGGNSCKACGYRGMLDTHHKLC [I4G]  3.56
29. KQMIGNSCKACGYRGMLDTHHKLC [T3M]  3.5
30. KQTIGNSCKACGYRGMLDHHHKLC [T19H]  3.43
31. KQTKGNSCKACGYRGMLDTHHKLC [I4K]  3.41
32. KQTIGNSCKACGYRGMLDTHHKRC [L23R]  3.4
33. KQTHGNSCKACGYRGMLDTHHKLC [I4H]  3.39
34. KQYIGNSCKACGYRGMLDTHHKLC [T3Y]  3.35
35. KQTIGGSCKACGYRGMLDTHHKLC [N6G]  3.33
36. KQNIGNSCKACGYRGMLDTHHKLC [T3N]  3.31
37. SQTIGNSCKACGYRGMLDTHHKLC [K1S]  3.31
38. KQTIGNSCKACGYRGMLDAHHKLC [T19A]  3.29
39. KQTTGNSCKACGYRGMLDTHHKLC [I4T]  3.29
40. KQLIGNSCKACGYRGMLDTHHKLC [T3L]  3.23
41. NQTIGNSCKACGYRGMLDTHHKLC [K1N]  3.22
42. RQTIGNSCKACGYRGMLDTHHKLC [K1R]  3.18
43. KQTIGNSCKACGYRGMLDTHGKLC [H21G]  3.17
44. KQTIGNSCKACGYRHMLDTHHKLC [G15H]  3.1
45. KQTIGASCKACGYRGMLDTHHKLC [N6A]  3.1
46. KQTIGNSCKACGYRGMYDTHHKLC [L17Y]  3.1
47. KQTIGNSCKACGYRGILDTHHKLC [M16I]  3.07
48. KQQIGNSCKACGYRGMLDTHHKLC [T3Q]  3.06
49. KQTIGNSCKACGYRGMLDMHHKLC [T19M]  3.03
50. KQTFGNSCKACGYRGMLDTHHKLC [I4F]  3.02
51. KQTIGNSCKACGYRGMLDTHHTLC [K22T]  2.99
52. AQTIGNSCKACGYRGMLDTHHKLC [K1A]  2.98
53. CQTIGNSCKACGYRGMLDTHHKLC [K1C]  2.97
54. KQTIGNSCKACGYRGMMDTHHKLC [L17M]  2.96
55. KQTIGNSCKACGYRGMLDTHHNLC [K22N]  2.93
56. KQCIGNSCKACGYRGMLDTHHKLC [T3C]  2.92
57. KQTIGNSCKACGYRGMLDTHIKLC [H21I]  2.88
58. KQFIGNSCKACGYRGMLDTHHKLC [T3F]  2.86
59. KQTIGMSCKACGYRGMLDTHHKLC [N6M]  2.83
60. KQTIGNSCKACGYRGMLDPHHKLC [T19P]  2.81
61. KQTIGNSCKACGYRGMLDTHHSLC [K22S]  2.79
62. KQTIGNSCKACGYRGMLDTHHALC [K22A]  2.77
63. KQTIGNSCKACGYRGMLDTHHQLC [K22Q]  2.76
64. KQIIGNSCKACGYRGMLDTHHKLC [T3I]  2.71
65. KQTIGNSCKACGYRGMLDTHAKLC [H21A]  2.7
66. KQTIGNSCKACGYRGMLDIHHKLC [T19I]  2.68
67. KQTIGNSCKACGYRGMLDTHHLLC [K22L]  2.65
68. KQTIGNSCKACGYRGWLDTHHKLC [M16W]  2.62
69. KQTIGNSCKACCYRGMLDTHHKLC [G12C]  2.56
70. KQTIGNSCKACGYRGMFDTHHKLC [L17F]  2.55
71. YQTIGNSCKACGYRGMLDTHHKLC [K1Y]  2.55
72. KQTIGNSCKACQYRGMLDTHHKLC [G12Q]  2.54
73. KQTIGNSCKACGYRGMLDVHHKLC [T19V]  2.49
74. KQWIGNSCKACGYRGMLDTHHKLC [T3W]  2.46
75. KQTIGNSCKACGYRNMLDTHHKLC [G15N]  2.45
76. KQTIGNSCKACGYRLMLDTHHKLC [G15L]  2.44
77. KQTIGNSCKACGYRGMLDTHHILC [K22I]  2.37
78. KQTIGNSCKACHYRGMLDTHHKLC [G12H]  2.36
79. KQTIGNSCKACGYRGMLDTHHRLC [K22R]  2.34
80. KQTIGNSCKACGYRGMLDLHHKLC [T19L]  2.29
81. KQTIGNSSKACGYRGMLDTHHKLC [C8S]  2.19
82. KQTIGNSCKACGYRGMLDFHHKLC [T19F]  2.17
83. KQTIGNSCKACYYRGMLDTHHKLC [G12Y]  2.14
84. KQTIGNSCKACGYRQMLDTHHKLC [G15Q]  2.12
85. KQTIGNSAKACGYRGMLDTHHKLC [C8A]  2.06
86. KQTIGNSTKACGYRGMLDTHHKLC [C8T]  2.05
87. IQTIGNSCKACGYRGMLDTHHKLC [K1I]  2.04
88. KQTIGNSGKACGYRGMLDTHHKLC [C8G]  2.03
89. KQTIGNSCKACLYRGMLDTHHKLC [G12L]  1.92
90. KQTIGNSMKACGYRGMLDTHHKLC [C8M]  1.86
91. KQTIGNSCKACWYRGMLDTHHKLC [G12W]  1.78
92. KQTIGNSVKACGYRGMLDTHHKLC [C8V]  1.78
93. KQTIGNSRKACGYRGMLDTHHKLC [C8R]  1.69
94. KQTIGNSFKACGYRGMLDTHHKLC [C8F]  1.44
